T1: CFeSP large subunit from Moorella thermoacetica (Moorella thermoacetica, UniProt Q07340 1-446)
T1 sequence (looked up): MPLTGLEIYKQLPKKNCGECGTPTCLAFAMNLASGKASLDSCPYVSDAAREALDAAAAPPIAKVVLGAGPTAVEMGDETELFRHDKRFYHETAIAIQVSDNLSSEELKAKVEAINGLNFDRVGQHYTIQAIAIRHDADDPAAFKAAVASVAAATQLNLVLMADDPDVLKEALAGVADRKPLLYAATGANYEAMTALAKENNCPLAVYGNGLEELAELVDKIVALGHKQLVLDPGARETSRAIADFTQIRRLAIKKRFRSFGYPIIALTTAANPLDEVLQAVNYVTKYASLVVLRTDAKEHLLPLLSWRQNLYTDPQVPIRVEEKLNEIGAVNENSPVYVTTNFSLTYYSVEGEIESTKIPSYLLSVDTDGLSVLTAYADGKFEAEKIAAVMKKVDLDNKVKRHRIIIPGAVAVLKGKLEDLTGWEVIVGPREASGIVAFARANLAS

T2: corrinoid iron-sulfur protein (CFeSP) from Moorella thermoacetica (Moorella thermoacetica, UniProt Q07340 1-446; Q07341 1-323)
T2 sequence (looked up) 1: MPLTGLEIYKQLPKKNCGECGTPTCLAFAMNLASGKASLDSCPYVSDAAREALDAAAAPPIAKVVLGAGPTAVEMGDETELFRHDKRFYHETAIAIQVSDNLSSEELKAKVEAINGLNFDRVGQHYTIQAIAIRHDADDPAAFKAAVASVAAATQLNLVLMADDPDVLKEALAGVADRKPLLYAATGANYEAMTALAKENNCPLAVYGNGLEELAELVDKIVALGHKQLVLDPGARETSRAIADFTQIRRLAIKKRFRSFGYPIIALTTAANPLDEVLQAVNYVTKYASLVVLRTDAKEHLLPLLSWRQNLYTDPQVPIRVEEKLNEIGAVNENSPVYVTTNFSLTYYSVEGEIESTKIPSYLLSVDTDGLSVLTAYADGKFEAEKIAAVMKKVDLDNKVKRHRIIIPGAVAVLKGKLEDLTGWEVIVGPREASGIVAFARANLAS
T2 sequence (looked up) 2: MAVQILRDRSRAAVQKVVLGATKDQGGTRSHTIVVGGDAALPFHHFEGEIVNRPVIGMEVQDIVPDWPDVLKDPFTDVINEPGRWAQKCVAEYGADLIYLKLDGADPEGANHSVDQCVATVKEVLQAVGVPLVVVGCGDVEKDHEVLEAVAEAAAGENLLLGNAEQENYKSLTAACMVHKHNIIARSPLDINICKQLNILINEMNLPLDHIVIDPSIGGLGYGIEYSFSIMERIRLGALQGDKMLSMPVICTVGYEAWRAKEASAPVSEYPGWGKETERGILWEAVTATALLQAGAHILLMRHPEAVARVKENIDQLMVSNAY

B1: CFeSP small subunit from Moorella thermoacetica (natural protein, UniProt Q07341 1-323, looked up)
chain: MAVQILRDRSRAAVQKVVLGATKDQGGTRSHTIVVGGDAALPFHHFEGEIVNRPVIGMEVQDIVPDWPDVLKDPFTDVINEPGRWAQKCVAEYGADLIYLKLDGADPEGANHSVDQCVATVKEVLQAVGVPLVVVGCGDVEKDHEVLEAVAEAAAGENLLLGNAEQENYKSLTAACMVHKHNIIARSPLDINICKQLNILINEMNLPLDHIVIDPSIGGLGYGIEYSFSIMERIRLGALQGDKMLSMPVICTVGYEAWRAKEASAPVSEYPGWGKETERGILWEAVTATALLQAGAHILLMRHPEAVARVKENIDQLMVSNAY

What was measured:
Assay in all cases: crystal structure
[1] = biological target: T1, CFeSP large subunit from Moorella …
[2] = biological target: T2, corrinoid iron-sulfur protein (CFeSP) …
[3] = biological target: B1
crystal structure = biological target: the molecule itself

binding result [1] | binding result [2] | binding result [3] | Binder | stoichiometry N (crystal structure)
binds | – | – | B1 | –
– | binds | binds | methyltransferase (MeTr) from Moorella thermoacetica (enzyme, UniProt Q46389 1-262, looked up) MLIIGERINGMFGDIKRAIQERDPAPVQEWARRQEEGGARALDLNVGPAVQDKVSAMEWLVEVTQEVSNLTLCLDSTNIKAIEAGLKKCKNRAMINSTNAEREKVEKLFPLAVEHGAALIGLTMNKTGIPKDSDTRLAFAMELVAAADEFGLPMEDLYIDPLILPANVAQDHAPEVLKTLQQIKMLADPAPKTVLGLSNVSQNCQNRPLINRTFLAMAMACGLDAAIADACDEALIETAATAEILLNQTVYCDSFVKMFKTR | 2

Source: PMC3326194 (Nature, 2012)
